Measurements taken from US7345026.

Columns and labels:
[1] = biological target: HLA-A2.1 molecules on T2 (TAP-, HLA-A2.1+) cells (human); test: T2 cells, stabilisation assay, BB7.2 flow cytometry at 0, 2, 4, 6, 8 h
[2] = biological target: HLA-A2.1 molecules on T2 (TAP-, HLA-A2.1+) cells (human); test: T2 cells, peptide binding by surface HLA-A2.1 (BB7.2) flow cytometry; ratio of concentrations reaching 20% of maximal binding

- DC50 (half-life of peptide-HLA-A2.1 complexes) [1]: > 8 h
- RA (relative affinity) (ratio to HIV 1 rt.476 reference peptide) [2]: 2.2
Substance: Tyrosinase 368-376-N epitopic peptide
